Test results taken from doi:10.1101/2021.12.01.470822 (bioRxiv, 2021).
Like-named read-outs stand apart in the source and are kept apart here.

T1: RD-ABD1 of PLS2 (human, UniProt P13796 1-375)
T1 sequence: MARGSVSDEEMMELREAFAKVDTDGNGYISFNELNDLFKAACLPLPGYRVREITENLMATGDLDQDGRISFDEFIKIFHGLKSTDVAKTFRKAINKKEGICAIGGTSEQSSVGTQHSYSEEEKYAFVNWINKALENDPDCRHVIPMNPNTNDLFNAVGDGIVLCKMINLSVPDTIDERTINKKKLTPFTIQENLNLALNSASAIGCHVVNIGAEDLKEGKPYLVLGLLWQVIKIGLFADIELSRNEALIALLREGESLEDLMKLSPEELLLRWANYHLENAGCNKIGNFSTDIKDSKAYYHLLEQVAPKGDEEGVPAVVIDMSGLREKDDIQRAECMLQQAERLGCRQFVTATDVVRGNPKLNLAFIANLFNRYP

B1: ABD2 of PLS2, unlabeled (domain or fragment)
chain: DIDWGALEGETREERTFRNWMNSLGVNPRVNHLYSDLSDALVIFQLYEKIKVPVDWNRVNKPPYPKLGGNMKKLENCNYAVELGKNQAKFSLVGIGGQDLNEGNRTLTLALIWQLMRRYTLNILEEIGGGQKVNDDIIVNWVNETLREAKKSSSISSFKDPKISTSLPVLDLIDAIQPGSINYDLLKTENLNDDEKLNNAKYAISMARKIGARVYALPEDLVEVNPKMVMTVFACLMGKGMKRV
B2: fluorescein-labeled ABD2 of PLS2 (domain or fragment)
chain: B1 chain
modifications: fluorescein-5-maleimide (FM) label
B3: ABD1 of PLS2 (domain or fragment)
chain: EGICAIGGTSEQSSVGTQHSYSEEEKYAFVNWINKALENDPDCRHVIPMNPNTNDLFNAVGDGIVLCKMINLSVPDTIDERTINKKKLTPFTIQENLNLALNSASAIGCHVVNIGAEDLKEGKPYLVLGLLWQVIKIGLFADIELSRNEALIALLREGESLEDLMKLSPEELLLRWANYHLENAGCNKIGNFSTDIKDSKAYYHLLEQVAPKGDEEGVPAVVIDMSGLREKDDIQRAECMLQQAERLGCRQFVTATDVVRGNPKLNLAFIANLFNRYP
B4: full-length PLS2 (plastin 2), wild type (natural protein)
chain: MARGSVSDEEMMELREAFAKVDTDGNGYISFNELNDLFKAACLPLPGYRVREITENLMATGDLDQDGRISFDEFIKIFHGLKSTDVAKTFRKAINKKEGICAIGGTSEQSSVGTQHSYSEEEKYAFVNWINKALENDPDCRHVIPMNPNTNDLFNAVGDGIVLCKMINLSVPDTIDERTINKKKLTPFTIQENLNLALNSASAIGCHVVNIGAEDLKEGKPYLVLGLLWQVIKIGLFADIELSRNEALIALLREGESLEDLMKLSPEELLLRWANYHLENAGCNKIGNFSTDIKDSKAYYHLLEQVAPKGDEEGVPAVVIDMSGLREKDDIQRAECMLQQAERLGCRQFVTATDVVRGNPKLNLAFIANLFNRYPALHKPENQDIDWGALEGETREERTFRNWMNSLGVNPRVNHLYSDLSDALVIFQLYEKIKVPVDWNRVNKPPYPKLGGNMKKLENCNYAVELGKNQAKFSLVGIGGQDLNEGNRTLTLALIWQLMRRYTLNILEEIGGGQKVNDDIIVNWVNETLREAKKSSSISSFKDPKISTSLPVLDLIDAIQPGSINYDLLKTENLNDDEKLNNAKYAISMARKIGARVYALPEDLVEVNPKMVMTVFACLMGKGMKRV

What was measured:
RD-ABD1 of PLS2 [1] = molecular target: T1, RD-ABD1 of PLS2; experiment: fluorescence polarisation
RD-ABD1 of PLS2 [2] = molecular target: T1, RD-ABD1 of PLS2; experiment: fluorescence polarisation; remark: listed apart in the source
ABD1 of PLS2 = molecular target: B3; experiment: fluorescence polarisation
[3] = molecular target: T2, F-actin (skeletal muscle actin) ( (rabbit or chicken skeletal …, UniProt P68135 1-377)); experiment: fluorescence polarisation
[4] = molecular target: T2, F-actin (skeletal muscle actin); experiment: fluorescence polarisation; remark: listed apart in the source
[5] = molecular target: T2, F-actin (skeletal muscle actin); experiment: co-sedimentation

B1
Kd (RD-ABD1 of PLS2 [1]): 2.9 ± 0.5 nM
Kd (RD-ABD1 of PLS2 [2]): 3 ± 0.9 nM
Kd (ABD1 of PLS2): 11.4 ± 0.7 nM
Kd [3]: 3.6 ± 0.3 nM

B2
Kd [4]: 9.9 ± 3.7 nM

B3
Kd [5]: 2600 ± 1000 nM

B4
Kd [5]: 5700 ± 1000 nM
